Assay [1] deals with T1, human amylin 3(a) receptor (human calcitonin receptor co-expressed with RAMP-3) (human, UniProt P30988 25-474; O60896 24-148, limits assumed).
T1 sequence (looked up) 1: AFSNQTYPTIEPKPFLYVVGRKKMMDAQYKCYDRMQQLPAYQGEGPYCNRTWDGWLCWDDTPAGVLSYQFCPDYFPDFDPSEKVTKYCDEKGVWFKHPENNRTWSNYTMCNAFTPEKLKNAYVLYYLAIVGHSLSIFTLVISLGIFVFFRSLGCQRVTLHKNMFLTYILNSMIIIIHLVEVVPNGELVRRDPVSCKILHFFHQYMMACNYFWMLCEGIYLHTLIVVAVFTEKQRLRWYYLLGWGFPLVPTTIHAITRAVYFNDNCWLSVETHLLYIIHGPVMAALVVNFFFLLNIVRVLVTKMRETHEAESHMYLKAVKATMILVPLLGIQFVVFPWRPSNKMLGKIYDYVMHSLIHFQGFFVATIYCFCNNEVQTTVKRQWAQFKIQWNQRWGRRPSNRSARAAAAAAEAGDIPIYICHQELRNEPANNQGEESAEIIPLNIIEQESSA
T1 sequence (looked up) 2: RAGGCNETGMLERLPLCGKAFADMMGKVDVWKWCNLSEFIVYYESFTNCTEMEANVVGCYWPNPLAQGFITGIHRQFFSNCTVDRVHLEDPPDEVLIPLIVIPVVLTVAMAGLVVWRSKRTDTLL
The assay is described as follows: cell-based or functional assay.

In assay [2] the target is T2, human calcitonin receptor (human, UniProt P30988 25-474).
T2 sequence (looked up): T1 sequence (looked up) 1
The assay is described as follows: cell-based or functional assay.

The target in assay [3] is T1, human amylin 3(a) receptor (human …). Nature of the assay: SPA competition binding (Assay V): displacement of 125I-rat amylin from membranes of BHK cells with human calcitonin receptor + RAMP-3. On the procedure: The binding assay was performed using scintillation proximity assay (SPA) beads (RPNQ0001) from PerkinElmer and cell membranes from the Amylin 3(a)/CRE-luc cells (as described in Assay (II)) were used. Membranes were prepared in the following way; the cells were rinsed with PBS and incubated with Versene for approximately 5 min before harvesting. The cells were flushed with PBS and the cell-suspension was centrifuged for 5 min at 1000 rpm. Cells were homogenized (ultrathurrax) in a buffer containing 20 mM Na-HEPES and 10 mM EDTA (pH 7.4) and centrifuged at 20.000 rpm for 15 min. The resulting pellet was resuspended, homogenized and centrifuged (20.000 rpm, 15 min) in a buffer containing 20 mM Na-HEPES and 0.1 mM EDTA (pH 7.4, buffer 2). The resulting pellet was resuspended in buffer 2 and protein concentration was measured (BCA protein Assay, Pierce). The homogenate was kept cold during the whole procedure. The membranes were kept at −80° C. until use. The assay was performed in a 384 well Optiplate (PerkinElmer) in a total volume of 40 ul. Membranes were mixed with SPA beads. Final concentration of membranes 35 ng/μL final and SPA beads was 0.05 mg/well. Test-compounds were dissolved in DMSO and further diluted in assay buffer (50 mM Hepes, pH 7.4, 1 mM CaCl2, 5 mM MgCl₂, 0.1% OA and 0.02% Tween20). […] The final mixture was incubated with shaking at 400 rpm for 120 min at 25° C. prior to centrifugation (1500 rpm, 10 min). Samples were analyzed on TopCounter™ (Packard). The IC₅₀ was calculated using (one site binding competition analysis) GraphPad Prism5 as a measure of receptor affinity.

Assay [4] addresses T3, human calcitonin receptor (human, UniProt P30988 25-474).
T3 sequence (looked up): T1 sequence (looked up) 1
Nature of the assay: cell-based or functional assay. This is another data set of the same source.

Assay [5] addresses T4, human amylin 3(a) receptor (human calcitonin receptor co-expressed with RAMP-3) (human, UniProt P30988 25-474; O60896 24-148, limits assumed).
T4 sequence (looked up) 1: T1 sequence (looked up) 1
T4 sequence (looked up) 2: T1 sequence (looked up) 2
Nature of the assay: cell-based or functional assay. The source holds these as a separate data set.

Assay [6] has as its target T5, human calcitonin receptor (human, UniProt P30988 25-474).
T5 sequence (looked up): T1 sequence (looked up) 1
The assay is described as follows: cell-based or functional assay. This is another data set of the same source.

The next assay concerns the target T6, rat calcitonin receptor (rat, UniProt P32214 25-516).
T6 construct: whole, on cells; Used as membranes prepared from transiently transfected BHK tk'ts 13 cells (Assay VIII); also called rCTR; rat calcitonin (a) receptor
T6 sequence (looked up): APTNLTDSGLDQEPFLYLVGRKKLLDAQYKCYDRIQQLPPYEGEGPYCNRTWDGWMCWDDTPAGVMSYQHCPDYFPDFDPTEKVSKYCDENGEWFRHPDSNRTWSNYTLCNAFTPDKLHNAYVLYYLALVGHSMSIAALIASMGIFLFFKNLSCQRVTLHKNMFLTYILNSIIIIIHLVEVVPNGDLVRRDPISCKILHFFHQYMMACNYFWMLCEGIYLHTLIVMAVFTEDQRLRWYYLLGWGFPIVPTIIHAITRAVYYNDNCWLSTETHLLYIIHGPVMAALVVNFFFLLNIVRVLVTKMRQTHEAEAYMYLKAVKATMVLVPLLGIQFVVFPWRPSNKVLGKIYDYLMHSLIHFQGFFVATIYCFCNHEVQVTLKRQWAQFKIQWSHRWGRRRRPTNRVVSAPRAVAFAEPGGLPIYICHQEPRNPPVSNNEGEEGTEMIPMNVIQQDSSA
Nature of the assay: SPA competition binding, displacement of 125I-calcitonin from membranes of BHK tk'ts 13 cells with rat calcitonin receptor (Assay VIII).

Read-outs that look alike come from different tables or passages of the source. Numbered stars: 1 amine (or outer) side, 2 acyl side, 3 side chain; on linkers, the order of the positions; unused ones are H or OH. Bridge positions count the residues as written; N and C are the ends. Square brackets hold non-standard residues; d marks the D form. Side chains are listed from the residue outwards. Ends that are not written are not given here. * marks the point of attachment. C20 diacid = O=C(O)CCCCCCCCCCCCCCCCCCC(=O)*; γGlu = O=C(O)[C@H](CCC(=O)[*:2])N[*:1]

B1: N^ε1-[(4S)-4-carboxy-4-(19-carboxynonadecanoylamino)butanoyl]-[Asp14,Arg17,Pro21,Pro27,Pro34,Arg35]-h-amylin (peptide)
peptide: K([γGlu-C20 diacid])CNTATCATQRLADFLRHSSPNFGAIPSSTNVGPRTY-NH2
modifications: disulfide 2-7; N-terminus assumed
SMILES: CC[C@H](C)[C@H](NC(=O)[C@H](C)NC(=O)CNC(=O)[C@H](Cc1ccccc1)NC(=O)[C@H](CC(N)=O)NC(=O)[C@@H]1CCCN1C(=O)[C@H](CO)NC(=O)[C@H](CO)NC(=O)[C@H](Cc1c[nH]cn1)NC(=O)[C@H](CCCNC(=N)N)NC(=O)[C@H](CC(C)C)NC(=O)[C@H](Cc1ccccc1)NC(=O)[C@H](CC(=O)O)NC(=O)[C@H](C)NC(=O)[C@H](CC(C)C)NC(=O)[C@H](CCCNC(=N)N)NC(=O)[C@H](CCC(N)=O)NC(=O)[C@@H](NC(=O)[C@H](C)NC(=O)[C@@H]1CSSC[C@H](NC(=O)[C@@H](N)CCCCNC(=O)CC[C@H](NC(=O)CCCCCCCCCCCCCCCCCCC(=O)O)C(=O)O)C(=O)N[C@@H](CC(N)=O)C(=O)N[C@@H]([C@@H](C)O)C(=O)N[C@@H](C)C(=O)N[C@@H]([C@@H](C)O)C(=O)N1)[C@@H](C)O)C(=O)N1CCC[C@H]1C(=O)N[C@@H](CO)C(=O)N[C@@H](CO)C(=O)N[C@H](C(=O)N[C@@H](CC(N)=O)C(=O)N[C@H](C(=O)NCC(=O)N1CCC[C@H]1C(=O)N[C@@H](CCCNC(=N)N)C(=O)N[C@H](C(=O)N[C@@H](Cc1ccc(O)cc1)C(N)=O)[C@@H](C)O)C(C)C)[C@@H](C)O
For B1, in assay [1], the “Ratio hCT/hAmylin funct. (hCTR EC50 over hAmylin-R EC50)” value is 24.9 and the “hAmylin-R funct. EC50 (CRE luciferase reporter, BHK cells)” value (“hAmylin-R funct. EC50” for short) stood at 0.146 nM. Further, the “hCTR funct. EC50 (CRE luciferase reporter, BHK cells)” value in assay [2] amounted to 3.64 nM. In addition, the IC50 in assay [3] worked out at 0.281 nM.

B2: N^ε1-[(4S)-4-carboxy-4-[[(4S)-4-carboxy-4-(19-carboxynonadecanoylamino)butanoyl]amino]butanoyl]-[D-Asp14,Arg17,Pro21,Pro27,Arg35]-h-amylin (peptide)
peptide: K([γGlu-γGlu-C20 diacid])CNTATCATQRLA[dD]FLRHSSPNFGAIPSSTNVGSRTY-NH2
modifications: disulfide 2-7; N-terminus assumed
SMILES: CC[C@H](C)[C@H](NC(=O)[C@H](C)NC(=O)CNC(=O)[C@H](Cc1ccccc1)NC(=O)[C@H](CC(N)=O)NC(=O)[C@@H]1CCCN1C(=O)[C@H](CO)NC(=O)[C@H](CO)NC(=O)[C@H](Cc1c[nH]cn1)NC(=O)[C@H](CCCNC(=N)N)NC(=O)[C@H](CC(C)C)NC(=O)[C@H](Cc1ccccc1)NC(=O)[C@@H](CC(=O)O)NC(=O)[C@H](C)NC(=O)[C@H](CC(C)C)NC(=O)[C@H](CCCNC(=N)N)NC(=O)[C@H](CCC(N)=O)NC(=O)[C@@H](NC(=O)[C@H](C)NC(=O)[C@@H]1CSSC[C@H](NC(=O)[C@@H](N)CCCCNC(=O)CC[C@H](NC(=O)CC[C@H](NC(=O)CCCCCCCCCCCCCCCCCCC(=O)O)C(=O)O)C(=O)O)C(=O)N[C@@H](CC(N)=O)C(=O)N[C@@H]([C@@H](C)O)C(=O)N[C@@H](C)C(=O)N[C@@H]([C@@H](C)O)C(=O)N1)[C@@H](C)O)C(=O)N1CCC[C@H]1C(=O)N[C@@H](CO)C(=O)N[C@@H](CO)C(=O)N[C@H](C(=O)N[C@@H](CC(N)=O)C(=O)N[C@H](C(=O)NCC(=O)N[C@@H](CO)C(=O)N[C@@H](CCCNC(=N)N)C(=O)N[C@H](C(=O)N[C@@H](Cc1ccc(O)cc1)C(N)=O)[C@@H](C)O)C(C)C)[C@@H](C)O
In the case of B2, the “hAmylin-R funct. EC50” value in assay [1] was found to be 0.383 nM. For the same molecule, in assay [2], the “hCTR funct. EC50 (CRE luciferase reporter, BHK cells)” value turned out to be 100 nM. For the same molecule, the IC50 in assay [3] is 0.365 nM.
As to K([γGlu-C20 diacid])CNTATCATQRLADFLRHSSPNFGAIPSSTNVGPETY-NH2 (disulfide 2-7 (inferred)), the “hCTR funct. EC50 (pM)” value in assay [4] came to 1120 pM. The “Ratio hCT/hAmylin funct.” value in assay [5] came out at 3.9.
Consider K([γGlu-γGlu-C20 diacid])CNTATCATQRLAEFLRHSSPNFGAIPSSTNVGPETP-NH2 (disulfide 2-7 (inferred)), for which the “hCTR funct. EC50 (pM)” value in assay [4] stood at 102 pM. Moreover, in assay [5], the “Ratio hCT/hAmylin funct.” value stood at 0.8.

B3: N^α1-[(4S)-4-carboxy-4-(19-carboxynonadecanoylamino)butanoyl]-[Glu14,Arg17,Pro21,Pro27,His34]-h-amylin (peptide)
peptide: {C20 diacid-γGlu}-KCNTATCATQRLAEFLRHSSPNFGAIPSSTNVGHNTY-NH2
modifications: disulfide 2-7
SMILES: CC[C@H](C)[C@H](NC(=O)[C@H](C)NC(=O)CNC(=O)[C@H](Cc1ccccc1)NC(=O)[C@H](CC(N)=O)NC(=O)[C@@H]1CCCN1C(=O)[C@H](CO)NC(=O)[C@H](CO)NC(=O)[C@H](Cc1c[nH]cn1)NC(=O)[C@H](CCCNC(=N)N)NC(=O)[C@H](CC(C)C)NC(=O)[C@H](Cc1ccccc1)NC(=O)[C@H](CCC(=O)O)NC(=O)[C@H](C)NC(=O)[C@H](CC(C)C)NC(=O)[C@H](CCCNC(=N)N)NC(=O)[C@H](CCC(N)=O)NC(=O)[C@@H](NC(=O)[C@H](C)NC(=O)[C@@H]1CSSC[C@H](NC(=O)[C@H](CCCCN)NC(=O)CC[C@H](NC(=O)CCCCCCCCCCCCCCCCCCC(=O)O)C(=O)O)C(=O)N[C@@H](CC(N)=O)C(=O)N[C@@H]([C@@H](C)O)C(=O)N[C@@H](C)C(=O)N[C@@H]([C@@H](C)O)C(=O)N1)[C@@H](C)O)C(=O)N1CCC[C@H]1C(=O)N[C@@H](CO)C(=O)N[C@@H](CO)C(=O)N[C@H](C(=O)N[C@@H](CC(N)=O)C(=O)N[C@H](C(=O)NCC(=O)N[C@@H](Cc1c[nH]cn1)C(=O)N[C@@H](CC(N)=O)C(=O)N[C@H](C(=O)N[C@@H](Cc1ccc(O)cc1)C(N)=O)[C@@H](C)O)C(C)C)[C@@H](C)O
notes: Synthetic acylated analogue of human amylin; also called compound 17
As for B3, the “hCTR funct. EC50 (CRE luciferase reporter, BHK cells)” value in assay [6] is 2.35 nM.

B4: N^α1-[(4S)-4-carboxy-4-(19-carboxynonadecanoylamino)butanoyl]-[Arg17,Pro21,Pro27,His34]-h-amylin (peptide)
peptide: KCNTATCATQRLANFLRHSSPNFGAIPSSTNVGHNTY
modifications: C20 diacid-gGlu on the alpha amino group of N-terminal Lys1; disulfide bridge Cys2-Cys7 and C-terminal amide as in human amylin
notes: Synthetic acylated analogue of human amylin; also called compound 40
In the case of B4, in assay [6], the “hCTR funct. EC50 (CRE luciferase reporter, BHK cells)” value worked out at 2.68 nM.
As to K([γGlu-γGlu-C20 diacid])CNTATCATQRLADFLRHSSPNFGAIPSSTNVGPRTY-NH2 (disulfide 2-7, also called compound 130), in assay [1], the “Ratio hCT/hAmylin funct. (hCTR EC50 over hAmylin-R EC50)” value stood at 44.9 and the “hAmylin-R funct. EC50” value is 0.162 nM. Besides, in assay [2], the “hCTR funct. EC50 (CRE luciferase reporter, BHK cells)” value was determined as 7.28 nM. Moreover, in assay [3], the IC50 turned out to be 0.453 nM.
KCNTATCATQRLADFLRHSSPNFGAIPSSTNVGSRTY-NH2 (disulfide 2-7 (inferred)) [[Asp14,Arg17,Pro21,Pro27,Arg35]-h-amylin]: the IC50 with rat calcitonin receptor came out at 30.9 nM.
